Results as given in the supplement of paper PMC10567573.

B1: CHMP4C (parent)
chain: TNIRLPNVPSSSLPAQPNRKPGMS
B2: FAM164A (parent)
chain: YDPDYIQCPYCQRRFNENAADRHI

Variants of: B1
Test: protein stability index of a GFP-peptide fusion (GPS, HEK-293T) (PSI 1-6); higher = more stable
Settings: c terminus: a fixed tail appended
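Note: lentivirally expressed fusions sorted by FACS into six bins by GFP to DsRed ratio, PSI derived from sequencing read proportions per bin multiplied by bin number.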

Protein stability index of substitutions, site by site:
T1: G 4.8 | K 4.55 | R 4.77 | H 4.56 | I 3.03 | N 4.82 | F 3.6 | D 4.71 | Q 4.75 | L 3.24 | S 4.4 | W 3.62 | E 3.75 | P 4.8 | C 4.14 | Y 3.71 | V 3.62 | A 4.63 | M 4.17
N2: F 3.43 | D 4.77 | C 3.87 | E 5.05 | A 4.67

Variants of: B2
Test: as above
Settings: c terminus: a fixed tail appended

Protein stability index of substitutions, site by site:
I24: C 4.12 | G 4.43 | T 4.18 | P 4.25 | Y 4.01 | K 4.29 | Q 4.57 | F 3.88 | A 4.74 | V 4.6 | S 4.56 | L 3.88 | H 4.4 | N 4.47 | E 4.25 | D 4.92 | R 3.9 | M 4.03 | W 2.89
A19: Q 4.37 | S 4.59 | V 3.82 | Y 3.58 | W 3.66 | P 4.03 | I 4.02 | F 4.24 | L 4.03 | R 4.11 | G 4.41 | T 4.51 | K 4 | N 4.37 | D 4.47 | M 3.88 | C 4.42 | H 4.12 | E 4.61
N18: D 4.5 | E 4.26 | T 4.11 | Q 4.76 | I 3.36 | Y 3.72 | F 3.22 | M 3.48 | V 3.86 | R 3.71 | H 4.37 | P 3.91 | W 3.4 | L 3.93 | G 3.92 | S 4.28 | C 4.15 | K 4.11 | A 4.22
R22: K 4.51 | S 4.03 | P 4.29 | E 4.47 | H 4.46 | Y 3.81 | V 4.17 | T 4.02 | I 4.03 | F 3.26 | W 3.15 | C 4.43 | M 4.48 | A 4.49 | L 4.08 | Q 4.59 | D 4.57 | N 4.29 | G 4.24
D21: F 3.72 | Y 4.03 | G 3.9 | R 4.07 | H 3.93 | W 3.51 | A 4.33 | Q 4.71 | E 4.42 | C 4.8 | N 4.72 | L 4.55 | S 4.57 | I 4.63 | V 4.25 | P 3.92 | M 3.94 | T 4.21 | K 4.46
A20: D 4.25 | L 4.25 | E 4.34 | Y 3.78 | F 3.87 | P 3.52 | S 4 | R 4.24 | H 3.95 | M 4.12 | Q 3.82 | K 3.76 | C 4.44 | W 3.52 | I 4.37 | G 3.85 | V 4.36 | N 4.49 | T 3.93
E17: T 4.91 | P 5.37 | S 4.69 | R 4.89 | Q 4.94 | M 5.01 | W 4.77 | N 5.01 | V 5.04 | Y 4.68
H23: K 4.11 | C 4.54 | W 3.63 | T 3.65 | Q 4.22 | L 3.9 | D 4.81 | I 4.21 | S 3.67 | A 4.4 | E 5.08 | F 3.3 | M 4.4 | G 4.05 | P 3.86 | Y 3.83 | N 4.15 | V 4.25 | R 3.96
